Results taken from US20170275359A1 (Genentech, published 2017).
Numbering of substitutions follows the chain as printed.

B1: anti-EphrinB2 monoclonal antibody clone 31.19 (antibody, V domains shown)
VH: EVQLVESGGGLVQPGGSLRLSCAASGFTITGSWIHWVRQAPGKGLEWVAVIYPNNGATDYADSVKGRFTISADTSKNTAYLQMNSLRAEDTAVYYCARTSAWAQLGAMDYWGQGTLVT
VL: DIQMTQSPSSLSASVGDRVTITCRASQDVSTAVAWYQQKPGKAPKLLIYSASFLYSGVPSRFSGSGSGTDFTLTISSLQPEDFATYYCQQSYTTPPTFGQGTKVEIKR
notes: Synthetic phage antibody on the humanized 4D5 framework; also called YW31.19; 31.19 antibody
B2: anti-EphrinB2 monoclonal antibody clone 31.19.2D3 (antibody, V domains shown)
VH: B1 VH with I29V, T30S, G31S, S32G, Y52F, P53H, N55K, A57G
VL: B1 VL with Q89E, S91T, Y92D, T93S
notes: also called YW31.19.2D3; 31.19.2D3 antibody
B3: anti-EphrinB2 monoclonal antibody clone 31.19.1D8 (antibody, V domains shown)
VH: B1 VH
VL: DIQMTQSPSSLSASVGDRVTITCRASQDVDSSLAWYQQKPGKAPKLLIYAASNLESGVPSRFSGSGSGTDFTLTISSLQPEDFATYYCQQSDDNPFTFGQGTKVEIKR
notes: also called YW31.19.1D8; 31.19.1D8 antibody

What follows are binders tested against T1, murine EphrinB2-His (murine, UniProt P52800 29-232, limits assumed) (assay: SPR BIAcore-3000, antibody coupled to CM5 chip (~500 RU), EphrinB2-His injected, 25 C).
T1 construct: Soluble His-tagged protein; also called His-tagged murine EphrinB2; murine antigen; not shown: His tag
T1 sequence (P52800 29-232 limits assumed): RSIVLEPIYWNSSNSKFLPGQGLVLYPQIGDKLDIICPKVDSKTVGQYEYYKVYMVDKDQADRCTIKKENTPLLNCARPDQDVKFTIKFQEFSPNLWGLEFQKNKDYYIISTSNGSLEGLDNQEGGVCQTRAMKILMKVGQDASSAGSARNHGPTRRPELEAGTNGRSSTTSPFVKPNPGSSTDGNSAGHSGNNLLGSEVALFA
Method: (§1) To determine the binding affinity of mouse anti-ephrinB2 Mabs, surface plasmon resonance (SRP) measurement with a BIAcore™-3000 was used (BIAcore, Inc., Piscataway, N.J.). Briefly, carboxymethylated dextran biosensor chips (CMS, BIAcore Inc.) were activated with N-ethyl-N′- (3-dimethylaminopropyl)-carbodiimide hydrochloride (EDC) and N-hydroxysuccinimide (NHS) according to the supplier's instructions. Anti-EphrinB2 antibody was diluted with 10 mM sodium acetate, pH 4.8, into 5 ug/ml before injection at a flow rate of 5 ul/minute to achieve approximately 500 response units (RU) of coupled antibody. Next, 1M ethanolamine was injected to block unreacted groups. For kinetics measurements, two-fold serial dilutions of either human or murine EphrinB2-His molecules (0.7 nM to 500 nM) were injected in PBS with 0.05% Tween 20 at 25° C. at a flow rate of 25 ul/min. Association rates (kₒₙ) and dissociation rates (koff) were calculated using a simple one-to-one Langmuir binding model (BlAcore Evaluation Software version 3.2). The equilibrium dissociation constant (Kd) was calculated as the ratio koff/kₒₙ. “NA” signifies that the measurement was not performed.
For B1, the Kd was 0.23 nM. For B2, the Kd was 0.015 nM. B3 was tested, and the Kd was 0.017 nM.

Each binder was assayed against T2, human EphrinB2-His (human, UniProt P52799 28-229, limits assumed) in the same assay as above.
T2 construct: Soluble His-tagged protein; also called His-tagged human EphrinB2; hEphrinB2; not shown: His tag
T2 sequence (P52799 28-229 limits assumed): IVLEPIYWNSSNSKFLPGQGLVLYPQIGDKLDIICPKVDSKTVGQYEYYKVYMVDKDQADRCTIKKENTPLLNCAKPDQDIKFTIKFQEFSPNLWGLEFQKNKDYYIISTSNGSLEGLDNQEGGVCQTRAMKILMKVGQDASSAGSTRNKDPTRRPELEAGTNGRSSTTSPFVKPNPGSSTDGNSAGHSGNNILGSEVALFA
Method: as §1
For B1, the Kd was 5.2 nM. B2 gave a Kd of 0.08 nM. B3 was tested, and the Kd was 0.07 nM.
